Assays:
Assay in all cases: SPR
[1] = target: recombinant SOCS1 in complex with Elongins BC (UniProt O15524)
[2] = target: recombinant SOCS2 in complex with Elongins BC (UniProt O14508)
[3] = target: recombinant CIS in complex with Elongins BC (GST removed) (human) (UniProt Q9NSE2)

**Q.** For “ARAP2-pY415 peptide (competitor phosphopeptide)”, which IC50 [1] is on record?
**A.** 50 nM

**Q.** And the IC50 [2]?
**A.** 1660 nM

**Q.** And the IC50 [3]?
**A.** 200 nM
